Positions count from the first letter of the chain named.
B1: BD-815 (antibody, V domains shown)
VH: EVQLVQSGPEVKKPGESLKISCKASGYSFISNWIGWVRQMPGKGLEWMGIIYPGDSDTRYSPSFQGQVTISADRSITTAYLQWSSLKASDTAIYYCARLGSSWYWVDYWGQGTLVTVSS
VL: SSELTQDPAVSVALGQTVRITCQGDSLRSYHASWYQQKPGQAPILVIYDKNNRPSGIPDRFSGSGSGNTASLTITGAQAEDEADYYCNSRDSSGDHLVFGTGTKVTVL
B2: BD55-1294 (antibody, V domains shown)
VH: QLHLQESGPGLVKPSETLSLTCTVSGGSIFSSTYYWGWIRQTPGKGLEWIGSFYNGGSTYYNPSLESRVTISEDTSKNQFSLKLSSVTAADTAVYYCARDLSETASYHNWFDPWGQGTLVTVSS
VL: DIQLTQSPSFLSASVGDRITITCRASQAISNYLAWYQQKPGKAPKLLIYGASTLHSGVPSRFSGSHSGSEFTLTISGLQPEDFATYYCQQLNSFGPGTKVDIK
B3: BD-692 (antibody, V domains shown)
VH: EVQLVESGGGLVQPGGSLRLSCAASGFTFSSHGMNWVRQAPGKGLEWVSYISSRDSTIYYADSVKGRFTISRDNAKNSLYLQMNSLRDEDTAVYYCARDNSDYDYSFGAYYFDYWGQGTLVTVSS
VL: EIVLTQSPATLSLSPGERATVSCRASQSVSNFLAWYQQKPGQAPRLLIHDASNRATGIPARFSGSGSGTDFTLTISSLEPEDFAVYYCQQRRNWPPVTFGQGTRLEIK
B4: S304 (antibody, V domains shown)
VH: EVQLVESGGGLVQPGGSLRLSCAASGFTFSSYDMHWVRQTTGKGLEWVSTIGTAGDTYYPDSVKGRFTISREDAKNSLYLQMNSLRAGDTAVYYCARGDSSGYYYYFDYWGQGTLLTVSS
VL: DIEMTQSPSSLSAAVGDRVTITCRASQSIGSYLNWYQQKPGKAPKLLIYAASSLQSGVPSRFSGSGSGTDFTLTISSLQPEDFAIYYCQQSYVSPTYTFGPGTKVDIK
B5: BD55-3525 (antibody, V domains shown)
VH: EVQVVESGGGLVKPGGSLRLSCAGSGFTFNYAWMNWVRQAPGKGLEWVGRIKSETGGGTTDYAAPVRGRFTISRDDSKDTVFLQMNSLKTEDTAVYYCTTEATVTSWDAFDVWGQGTLVTVST
VL: QSVLTQPPSASGTSGQRVTISCSGSSSNIGSNTVNWYQQIPRRAPKLLIYRNNQRPSGVPDRFSASKSGTSASLAISGLHSEDEADYYCAAWDDRLNGFVFGTGTKVTVL
B6: C576 (antibody, V domains shown)
VH: QVQLVQSGAEVKKPGSSVKVSCKASGGTFSIYAISWVRQAPGQGLEWMGGIIPILGTANYAQKFQGRVTITADESTSTAYMELSSLRSEDTAVYYCASFHVAYGDYIPFDYWGQGTLVTVSS
VL: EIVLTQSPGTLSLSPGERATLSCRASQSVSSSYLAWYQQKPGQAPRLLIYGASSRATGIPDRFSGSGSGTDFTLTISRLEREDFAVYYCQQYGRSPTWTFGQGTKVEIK
B7: BD55-1831 (antibody, V domains shown)
VH: QVQLQESGPGLVKPSQTLSLTCTVSGGSISNGDYYWSWIRQPPGKGLEWIGYIHNSGSTYKKLSLRSRLTISVDTSKNQFSLKLSSVTAADTAVYYCARTASPSGAWYFDFWGRGTLVTVSS
VL: SYVLTQPPSVSVAPGQTARITCGGNDIGSKNVHWYQQKPGQAPLLVVYDDTDRPSGIPERFSGSNSGNPATLTISRVEAGDEADYYCQVWDSSFDHVIFGGGTKLTVL
B8: BD-796 (antibody, V domains shown)
VH: QVQLVQSGAEVKKPGSSVKVSCKASGGTFSSYAINWMRQAPGQGLEWMGGIIPILGIPNSAQKFQGRVTITADKSTSTAYMELSSLRSEDTAVYYCARMYNYDSSGLEADAFDIWGQGTMVTVSS
VL: QSVLTQPPSVSGAPGQRVTISCTGSSSNIGAGYDVHWYQQLPGTAPKLLIYGNSNRPSGVPDRFSGSKSGTSASLAITGLQAEDEADYYCQSYDSSLSGVVFGGGTKLTVL
B9: BD-913 (antibody, V domains shown)
VH: QVQLVQSGAEVKKPGSSVKVSCKASGGTFSTYAISWVRQAPGQGLEWMGGIIPIVGIANDAQKFQGRVTITADKSTSTAYMELSSLRSEDTAVFYCARAQRKQWPVEDAYDIWGQGTMVTVSS
VL: B8 VL with V100S, L108V
B10: BD55-4325 (antibody, V domains shown)
VH: QAQLVQSGAEVKKPGASVKVSCEAIGYAFKTYGISWVRQAPGQGLEWVGWISGHDGTTNYAQKFQGRVTLTTDTSTNTAFLEVKSLRSDDTAVFYCARDKAYSGYDYWSTIFDYWGQGTLVTVST
VL: SYVLTQPPSVSVAPGKTATITCGGNNIRSKSVQWFQQRPGQAPILVLYYDTDRPSGIPERFSGSNSGNTATLTISRVEAGDEADYYCQVWDSTTDHYLFGTGTKVTVL
B11: C581 (antibody, V domains shown)
VH: EVQLVQSGAEVKKPGESLKISCKGSGYRFTSYWIAWVRQMPGKGLEWMGIIYPGDSDTRYSPSFQGQVTISADQSISTAYLQWSSLKASDTAMYYCARGGPPGGVKLELTDYWGQGALVTVSS
VL: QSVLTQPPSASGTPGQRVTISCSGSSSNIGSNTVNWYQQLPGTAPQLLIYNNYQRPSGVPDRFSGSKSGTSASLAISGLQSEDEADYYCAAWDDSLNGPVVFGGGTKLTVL
B12: C556 (antibody, V domains shown)
VH: QVQLVQSGAEVKKPGASVKVSCKASGYTFTYYYMHWVRQAPGQGLEWMGIINPSGGSTSYAQKFQGRVTMTRDTSTSTVYMELSSLRSEDTAVYYCARPLLPGETGSLNRLDYWGQGTLVTVSS
VL: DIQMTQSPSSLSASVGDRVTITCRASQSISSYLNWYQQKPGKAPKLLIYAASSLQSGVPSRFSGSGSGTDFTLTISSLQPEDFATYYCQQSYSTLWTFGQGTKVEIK
B13: BD55-5339 (antibody, V domains shown)
VH: EVQLVESGEGLVQPGGSLRISCAASGFTFSNYPMHWVRQAPGQGLESVSSITSNGDGTFYANSVKGRFTISRDNSKNTLYLQMGSLRTEDTALYFCAREVAEQLDCYFDLWGRGTLVTVSS
VL: DIQMTQSPSSLSASVGDRVTITCRASQSIRTYLNWYQHKPGKAPKLLIFAASSLQSGVPSRFSGSGSGTDFSLTISSLQPEDFATYYCQQSYITPPITFGQGTRLEIK
B14: BD-923 (antibody, V domains shown)
VH: EVLLVESGGGLVQPGRSLRLSCTASGFTFEDYAMHWVRQAPGKGLEWVSGMSWNSGTIGYADSVRGRFIISRDNAKNSLYLQMNSLRAEDTALYYCGKDRGFGESLYYVMDVWGQGATVTVSS
VL: QSALTQPASVSGSPGQSITISCTGTSSDVGVYNYVSWYQQHPGKAPKLMIYNVSDRPSGVSNRFSGSKSGNTASLTISGLQAEDEADYYCSSYTSSSIVIFGGGTKLTVL
B15: BD55-5300 (antibody, V domains shown)
VH: QVQLVQSGAEVKKPGSSVKVSCKASGGSFTSHAVSWVRQAPGQGLEWMGVSIPLFGTAKYAQKFQGRVTITADESTSTVYMSLSNLRSGDTAVYYCARLFPNGTPTDLTAPSDYWGQGTLVTVSS
VL: DIQMTQSPSSLSASVGDRVTITCQASQDIGNYLNWYQQKPGKAPKLLIYDASHLETGVPSRFSGSASGTDFTLTISSLQPDDIATYYCQRYDDVPTYTFGQGTKLEIK
B16: BD55-3372 (antibody, V domains shown)
VH: EVHLVESGGGLVKPGGSLRLSCAASGFTFSNYAMNWVRQAPGKGLQWVSSITGSSSFIFYADSVKGRFTIVRDNAQNSLYLQMNSLRDEDTAVYYCARERDDYDTRLDWGQGTLVTVSS
VL: QPMLTQPPSVSGAPGQTVTISCVGSSSNIGAGYEVHWYQQLPGTAPKRLLSGNSDRPSGVPDRFSGSKSGTSASLAITGLQADDEADYYCQSYDSSLSLSAVVFGGGTKLTVL
B17: COV2-2103 (antibody, V domains shown)
VH: EVQLVESGGGLVQPGGSLRLSCAASGFTFSRHWMTWVRQAPGKGLEWVANIKQDGSEKYYVDSVKGRLTISRDNAKNSLYLQMNSLRAEDTAVYYCARLGFYYGGADYWGQGTLVTVSS
VL: NFMLTQPHSVSESPGKTVTISCTGSSGSIASNYVQWYQQRPGSAPTTVISEDNQRPSGVPDRFSGSIDSSSNSASLTISGLKTEDEADYYCQSYDGINRAWVFGGGTKLTVL
B18: DH1193 (antibody, V domains shown)
VH: QVQLVESGGGVVQPGRSLRLSCAASGFTFSNYGMHWVRQAPGKGLEWVTVISYDGSNKYYADSVKGRFTISRDNSKNTLYLQMNSLRAEDTAVYYCAKVLTWSIHPEDYYYGMDVWGQGTTVTVSS
VL: QSALTQPPSASGSPGQSVTISCTGTSSDVGGYNYVSWYQQHPGKAPKLMIYEVSQRPSGVPDRFSGSKSGNTASLTVSGLQAEDEADYYCSSYAGSNIGVFGGGTTLTVL
B19: DH1044 (antibody, V domains shown)
VH: QVQLVESGGGVVQPGRSLRLSCAASGFTFSSYGMHWVRQAPGKGLEWVAVISFDGSNKYYVDSVKGRFTISRDNSKNTLYLQMNSLRAEDTAVYYCAKDMHNDYGDYVSYYFYYGMDVWGQGTTVTVSS
VL: QSVLTQPPSVSAAPGQKVIISCSGSSSNIGNNYVSWYQQLPGTAPKLLIYENNKRPSGIPDRFSGSKSGTSATLGITGLQTGDEADYYCGTWDSSLRTDVFGGGTKLIVL
B20: BD-907 (antibody, V domains shown)
VH: QVQLVQSGSELKKPGASVKVSCKASGYTFSSYYLNWVRQAPGQGLEWMGWIDTNTGNPTYAQAFTGRFVFSLDTSVSTAYLQIGSLQANDTAVYYCAREGGGWSGLYYYFGMDVWGQGTTVTVSS
VL: EIVLTQSPGTLSLSPGERATVSCRASQSIGSNYLAWYQQKPGQAPRLLIYGASSRATGIPDRFSGSGSGTDFTLTISRLEPEDFAVYYCQQYGSSPPYTFGQGTKLEIK
B21: BD55-3500 (antibody, V domains shown)
VH: QVQLVESGGGVVQPGRSLRLSCAASGFIFSRYDIHWVRQTPGKGLEWVALIRYDGSDKYYADSVKGRFTISRDNSKNTLYLQMNSLRVEDTAVYYCAKEGIQGYSGYDYFWTGFYFDYWGQGTLVTVSS
VL: not shown
B22: COV2-2389 (antibody, V domains shown)
VH: EVQLVESGGGLVQPGRSLRLSCAASGFTFDDYAMHWVRQAPGKGLEWVSGISWNSGTIGYADSVKGRFIISRDNAKNSLYLQMNSLRPEDTALYYCAKDIIRQGEDGMDVWGQGTTVTVSS
VL: DIQMTQSPSSLSASVGDRVTITCRASQNIASYLNWYQQKPGKAPKLLIYAASSLQSGVPSRFSGSGSGTDFTLTISSLQPEEFATYYCQQSYSTPWTFGQGTKVEIK
B23: BD-713 (antibody, V domains shown)
VH: EVQLVESGGGLVQPGRSLRLSCAASGFTFDDYAMHWVRQAPGKGLEWVSGMSWNSGTIGYADSVKGRFTIIRDNAKNSLYLQMIRLRAEDTALYYCAKASPRLDTAMAPFDYWGQGTLVTVSS
VL: SYVLTQPPSVSVAPGKTARITCGGNNIGSKSVHWYQQKPGQAPALVIYYDNDRPSGLPERFSGSNSGNTATLTISRVEAGDEADYYCQVWHSSSDSLVFGGGTKLTVL

Biological target: SARS-CoV-2 Omicron (B.1.1.529) RBD (SARS-CoV-2 Omicron B.1.1.529 (BA.1), strain)

Binder	binding result
B1	binds
B2	binds
B3	binds
B4	binds
B5	binds
B6	binds
B7	binds
B8	binds
B9	binds
B10	binds
B11	binds
B12	binds
B13	binds
B14	binds
B15	binds
B16	binds
B17	binds
B18	binds
B19	binds
B20	binds
B21	binds
B22	binds
B23	binds

Source: article PMC8866119 (Nature, 2021)
